Substrate in this data set: O=C(O)c1cccnc1
Put plainly: purified protein, by the assay type. The settings on record: other: kinetics in the absence of the inhibitor; 0.4 mM PRPP; pH 7.5; 37.0 °C.

B1: human recombinant NAPRT (Homo sapiens) (protein)
chain: MAAEQDPEARAAARPLLTDLYQATMALGYWRAGRARDAAEFELFFRRCPFGGAFALAAGLRDCVRFLRAFRLRDADVQFLASVLPPDTDPAFFEHLRALDCSEVTVRALPEGSLAFPGVPLLQVSGPLLVVQLLETPLLCLVSYASLVATNAARLRLIAGPEKRLLEMGLRRAQGPDGGLTASTYSYLGGFDSSSNVLAGQLRGVPVAGTLAHSFVTSFSGSEVPPDPMLAPAAGEGPGVDLAAKAQVWLEQVCAHLGLGVQEPHPGERAAFVAYALAFPRAFQGLLDTYSVWRSGLPNFLAVALALGELGYRAVGVRLDSGDLLQQAQEIRKVFRAAAAQFQVPWLESVLIVVSNNIDEEALARLAQEGSEVNVIGIGTSVVTCPQQPSLGGVYKLVAVGGQPRMKLTEDPEKQTLPGSKAAFRLLGSDGSPLMDMLQLAEEPVPQAGQELRVWPPGAQEPCTVRPAQVEPLLRLCLQQGQLCEPLPSLAESRALAQLSLSRLSPEHRRLRSPAQYQVVLSERLQALVNSLCAGQSP
As a reminder, the Km is the substrate concentration at which the rate is half of its maximum. With B1, the Michaelis-Menten constant (Km) is 15 ± 6 µM.

(Values after publication PMC9919730, “A Versatile Continuous Fluorometric Enzymatic Assay for Targeting Nicotinate Phosphoribosyltransferase” (Molecules, 2023).)
